# Test results reported in US20250223332A1 (BOARD OF TRUSTEES OF THE UNIVERSITY OF ILLINOIS, published 2025).
# Assays:
# [1] = biological target: T1, hDLL4-Fc (Sino Biologics) (human, UniProt Q9NR61 27-524, limits assumed); assay: SPR (Biacore T200), hDLL4-Fc on the chip, decoy as analyte, multi-cycle kinetics, 25 C
# T1 construct: Bought from Sino Biologics; also called Recombinant Fc-tagged hDLL4; recombinant hDLL4; not shown: Fc tag of the bought protein
# Protocol: (§1) Affinity Analysis. The binding kinetics of N1₁₀₋₁₄Fc and N4₁₀₋₁₄Fc were analyzed using a Surface Plasmon Resonance (SPR)-based assay on the BIACORE™ T200 system (GE Healthcare). Human IgG Fc (Sino Biologics) was first immobilized on a CM5 biosensor chip. Subsequently, an appropriate concentration of hDLL4-Fc (Sino Biologics) and hJAG1-Fc (Sino Biologics) was captured to the surface at a Response Unit (RU) of up to 20,000. Various concentrations of N1₁₀₋₁₄Fc and N4₁₀₋₁₄Fc were then passed through the chip with running buffer (1×HBS-N (10 mM HEPES, 150 mM NaCl) with 0.005% polysorbate 20, 1 mM CaCl₂), 2 mM MgCl₂, PH 7.4). After each reaction, the captured ligands and analyte were removed by regeneration buffer (1×HBS-N (10 mM HEPES, 150 mM NaCl) with 0.005% polysorbate 20, 1 mM CaCl₂), 2 mM MgCl₂, pH 7.4). The whole reaction was conducted at 25° C. and a flow rate of 25 μl/min. Sensorgrams of each concentration were obtained and analyzed by BIACORE™ evaluation software (GE Healthcare). The equilibrium constant KD was calculated from the ratio of the dissociation rate constant kd to the association rate constant kₐ (kd/kₐ).
# Surface plasmon resonance (SPR) spectroscopy was used to characterize and quantify the interactions between these proteins. Recombinant Fc-tagged hDLL4 and hJAG1 were immobilized on the sensor chip using amine coupling and multi-cycle kinetic experiments were performed using increasing concentrations of either N1₁₀₋₁₄Fc or N4₁₀₋₁₄Fc. As a control, recombinant IgG Fc was immobilized on the sensor chip.
# [2] = biological target: T1, hDLL4-Fc (Sino Biologics); assay: SPR (Biacore T200), hDLL4-Fc on the chip, decoy as analyte, KD = kd/ka
# Protocol: as §1
# Surface plasmon resonance (SPR) spectroscopy was used to characterize and quantify the interactions between these proteins. […]
# T1 sequence (Q9NR61 27-524 limits assumed): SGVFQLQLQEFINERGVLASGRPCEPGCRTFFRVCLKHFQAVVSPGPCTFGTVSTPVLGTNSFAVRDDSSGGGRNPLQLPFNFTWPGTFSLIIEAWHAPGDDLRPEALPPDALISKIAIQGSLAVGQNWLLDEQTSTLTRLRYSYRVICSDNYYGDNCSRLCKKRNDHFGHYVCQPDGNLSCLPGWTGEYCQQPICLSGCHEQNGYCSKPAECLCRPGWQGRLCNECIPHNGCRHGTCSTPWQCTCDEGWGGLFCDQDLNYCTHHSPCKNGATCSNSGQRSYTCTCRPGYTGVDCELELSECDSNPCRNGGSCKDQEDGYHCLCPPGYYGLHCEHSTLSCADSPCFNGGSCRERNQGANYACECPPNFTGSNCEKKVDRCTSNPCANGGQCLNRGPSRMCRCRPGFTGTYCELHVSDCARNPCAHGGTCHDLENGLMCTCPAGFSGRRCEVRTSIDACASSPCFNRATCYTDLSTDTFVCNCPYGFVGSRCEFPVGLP
koff [1] [s⁻¹],kon [1] [M⁻¹ s⁻¹],Kd [2] [nM],Binder
0.019,31500,605,"N110-14Fc (human Notch1 EGF-like repeats 10-14 fused to human IgG Fc) (Fc fusion, Produced in HEK293 cells; also called Notch1 peptibody; Notch1 decoy; not shown: human IgG Fc) ARGPRCISNPCNEGSNCDTNPVNGKAICTCPSGYTGPACSQDVDECSLGANPCEHAGKCINTLGSFECQCLQGYTGPRCEIDVNECVSNPCQNDATCLDQIGEFQCICMPGYEGVHCEVNTDECASSPCLHNGRCLDKINEFQCECPTGFTGHLCQYDVDECASTPCKNGAKCLDGPNTYTCVCTEGYTGTHCE"
0.0099,10300,962,"N410-14Fc (human Notch4 EGF-like repeats 10-14 fused to human IgG Fc) (Fc fusion, Produced in HEK293 cells; also called Notch4 peptibody; Notch4 decoy; not shown: human IgG Fc) LEDMCLSQPCHGDAQCSTNPLTGSTLCLCQPGYSGPTCHQDLDECLMAQQGPSPCEHGGSCLNTPGSFNCLCPPGYTGSRCEADHNECLSQPCHPGSTCLDLLATFHCLCPPGLEGQLCEVETNECASAPCLNHADCHDLLNGFQCICLPGFSGTRCEEDIDECRSSPCANGGQCQDQPGAFHCKCLPGFEGPRCQ"
